Assays:
[1] = biological target: HLA-A*01:01; experiment: IEDB peptide-MHC binding, purified MHC/direct/fluorescence; filed as Kd, often an IC50 or EC50 that approximates it; ≥ and ≤ were set here for values at or beyond the usual limits of such assays
[2] = biological target: HLA-A*02:01; experiment: as above
[3] = biological target: HLA-A*02:06; experiment: as above; settings: source organism: Giardia lamblia ATCC 50803
[4] = biological target: HLA-A*02:11; experiment: as above; settings: source organism: Giardia lamblia ATCC 50803
[5] = biological target: HLA-A*02:12; experiment: as above; settings: source organism: Giardia lamblia ATCC 50803
[6] = biological target: HLA-A*02:16; experiment: as above; settings: source organism: Giardia lamblia ATCC 50803
[7] = biological target: HLA-A*02:19; experiment: as above; settings: source organism: Giardia lamblia ATCC 50803
[8] = biological target: HLA-A*03:01; experiment: as above
[9] = biological target: HLA-A*11:01; experiment: as above
[10] = biological target: HLA-A*24:02; experiment: as above; settings: source organism: Giardia lamblia ATCC 50803
[11] = biological target: HLA-A*26:01; experiment: as above
[12] = biological target: HLA-A*31:01; experiment: as above
[13] = biological target: HLA-A*69:01; experiment: as above
[14] = biological target: HLA-B*07:02; experiment: as above
[15] = biological target: HLA-B*08:02; experiment: as above; settings: source organism: Giardia lamblia ATCC 50803
[16] = biological target: HLA-B*15:01; experiment: as above
[17] = biological target: HLA-B*18:01; experiment: as above; settings: source organism: Giardia lamblia ATCC 50803
[18] = biological target: HLA-B*27:05; experiment: as above
[19] = biological target: HLA-B*40:01; experiment: as above
[20] = biological target: HLA-B*44:02; experiment: as above; settings: source organism: Giardia lamblia ATCC 50803
[21] = biological target: HLA-B*46:01; experiment: as above; settings: source organism: Giardia lamblia ATCC 50803
[22] = biological target: HLA-B*58:01; experiment: as above
[23] = biological target: HLA-A*02:50; experiment: IEDB peptide-MHC binding, purified MHC/competitive/fluorescence; filed as Kd, often an IC50 or EC50 that approximates it; ≥ and ≤ were set here for values at or beyond the usual limits of such assays
[24] = biological target: HLA-A*24:03; experiment: IEDB peptide-MHC binding, purified MHC/direct/fluorescence; filed as Kd, often an IC50 or EC50 that approximates it; ≥ and ≤ were set here for values at or beyond the usual limits of such assays; settings: source organism: Klebsiella pneumoniae
[25] = biological target: HLA-B*08:01; experiment: as above; settings: source organism: Klebsiella pneumoniae
[26] = biological target: HLA-A*02:01; experiment: IEDB peptide-MHC binding, purified MHC/competitive/fluorescence; filed as Kd, often an IC50 or EC50 that approximates it; ≥ and ≤ were set here for values at or beyond the usual limits of such assays
[27] = biological target: HLA-A*02:03; experiment: as above
[28] = biological target: HLA-A*02:11; experiment: as above
[29] = biological target: HLA-A*02:12; experiment: as above
[30] = biological target: HLA-A*02:19; experiment: as above
[31] = biological target: HLA-A*03:01; experiment: as above
[32] = biological target: HLA-A*23:01; experiment: as above
[33] = biological target: HLA-A*24:03; experiment: as above
[34] = biological target: HLA-A*26:01; experiment: as above
[35] = biological target: HLA-A*29:02; experiment: as above
[36] = biological target: HLA-A*68:02; experiment: as above; settings: source organism: Bacillus anthracis str. Ames
[37] = biological target: HLA-A*69:01; experiment: as above; settings: source organism: Bacillus anthracis str. Ames
[38] = biological target: HLA-B*15:01; experiment: as above
[39] = biological target: HLA-B*15:17; experiment: as above; settings: source organism: Bacillus anthracis str. Ames
[40] = biological target: HLA-B*18:01; experiment: as above
[41] = biological target: HLA-B*27:03; experiment: as above
[42] = biological target: HLA-B*39:01; experiment: as above
[43] = biological target: HLA-B*46:01; experiment: as above
[44] = biological target: HLA-B*51:01; experiment: as above
[45] = biological target: HLA-B*57:01; experiment: as above
[46] = biological target: HLA-A*02:16; experiment: as above; settings: source organism: Burkholderia vietnamiensis G4
[47] = source organism: Giardia lamblia ATCC 50803
[48] = source organism: Klebsiella pneumoniae
[49] = source organism: Bacillus anthracis str. Ames
[50] = source organism: Burkholderia vietnamiensis G4

Measured: Kd

YLDMVLAFL
≤ 0.001 µM: [3] | [4] | [5] | [6] | [7]
0.0185 µM: [2]; [47]
≥ 20 µM: [1]; [47] | [8]; [47] | [9]; [47] | [10] | [11]; [47] | [12]; [47] | [13]; [47] | [14]; [47] | [15] | [16]; [47] | [17] | [18]; [47] | [19]; [47] | [20] | [21] | [22]; [47]
≤ 0.0001 µM: [23]; [47]

LLQEKYGLI
7.89 µM: [25]
0.0177 µM: [23]; [48]
1.18 µM: [2]; [48]
≥ 20 µM: [1]; [48] | [8]; [48] | [9]; [48] | [24] | [11]; [48] | [12]; [48] | [13]; [48] | [14]; [48] | [16]; [48] | [18]; [48] | [19]; [48] | [22]; [48]

VILYFMYRK
≥ 20 µM: [26]; [49] | [27]; [49] | [28]; [49] | [29]; [49] | [30]; [49] | [32]; [49] | [33]; [49] | [34]; [49] | [35]; [49] | [36] | [37] | [38]; [49] | [39] | [40]; [49] | [41]; [49] | [42]; [49] | [43]; [49] | [44]; [49] | [45]; [49]
0.528 µM: [31]; [49]

GVNDTEAHA
≥ 20 µM: [26]; [50] | [27]; [50] | [28]; [50] | [29]; [50] | [30]; [50] | [31]; [50] | [32]; [50] | [33]; [50] | [34]; [50] | [35]; [50] | [38]; [50] | [40]; [50] | [41]; [50] | [42]; [50] | [43]; [50] | [44]; [50] | [45]; [50]
0.365 µM: [46]

— the Immune Epitope Database (IEDB)
